Laboratory results published in article PMC5014583 (Structure (London, England : 1993), 2016).
Where “and” joins values, the source holds several entries; their conditions need not be identical. Identical values can stand only once.

What was measured:
[1] = target: T1, Full-length human calmodulin (CaM) (human, UniProt P0DP23 1-149); assay: ITC
[2] = target: T1, Full-length human calmodulin (CaM); assay: NMR titration

Kd [1]: 153 nM and 137 nM | dH [1]: -16.6 kcal/mol | Kd [2]: 36000 nM
Binder: SPANSFHFKEAWKHAIQKAKHMPDPWA [eEF-2KCBD, calmodulin-binding segment of human eEF-2K (residues 74-100)]
